Measurements: patent US20240190960A1 (Chugai, published 2024)

T1: Biotinylated human CD3εδ heterodimer (Fc-fused human CD3ε / Fc-fused human CD3δ) (human, biotin on the Avi tag (BirA))
T1 chain 1: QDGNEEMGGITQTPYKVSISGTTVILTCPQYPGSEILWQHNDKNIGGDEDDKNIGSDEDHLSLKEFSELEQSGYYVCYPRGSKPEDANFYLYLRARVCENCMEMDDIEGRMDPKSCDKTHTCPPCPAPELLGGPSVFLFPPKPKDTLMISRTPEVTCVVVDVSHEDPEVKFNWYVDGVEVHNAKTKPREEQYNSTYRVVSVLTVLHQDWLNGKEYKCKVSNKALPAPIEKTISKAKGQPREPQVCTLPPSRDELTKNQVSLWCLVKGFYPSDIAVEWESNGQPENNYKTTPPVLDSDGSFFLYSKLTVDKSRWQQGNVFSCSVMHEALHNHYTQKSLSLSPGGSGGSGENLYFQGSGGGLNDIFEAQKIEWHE
T1 chain 2: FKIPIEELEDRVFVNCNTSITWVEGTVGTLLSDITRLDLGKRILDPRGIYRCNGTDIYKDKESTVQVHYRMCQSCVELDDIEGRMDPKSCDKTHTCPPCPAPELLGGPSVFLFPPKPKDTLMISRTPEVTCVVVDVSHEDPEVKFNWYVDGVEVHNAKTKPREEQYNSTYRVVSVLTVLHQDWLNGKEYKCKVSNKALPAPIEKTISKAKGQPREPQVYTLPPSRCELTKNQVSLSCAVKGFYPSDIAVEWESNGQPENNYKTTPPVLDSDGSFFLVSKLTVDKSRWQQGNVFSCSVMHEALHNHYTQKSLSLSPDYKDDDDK


What was measured:
[1] = molecular target: T1, Biotinylated human CD3εδ heterodimer …; experiment: BLI (Octet RED384), 37 C; biotinylated CD3εδ on streptavidin sensor, one-arm antibody in solution for 120 s (0-1000 nM used, the concentration shown is not given)
Experimental: Using an Octet RED 384 (ForteBio), a streptavidin sensor (ForteBio) was reacted with CD3εδ prepared at 0.2 μM in ACES at 37° C. for 300 seconds. […] Response values were extracted every three seconds, and graphs were depicted using Microsoft Excel 2013 (Microsoft).

[2] = molecular target: T2, Human CD3εδ heterodimer (soluble human CD3ε with FLAG tag / soluble human CD3δ with His tag) (human, UniProt P07766 22-126; P04234 22-105); experiment: SPR (Biacore T200), BiAb captured on protein A, CD3εδ 0-15000 nM as analyte, 37 C
T2 construct: Positions are counted from 1, so the entries may include the signal peptides
Experimental: (3) Evaluation of Binding Properties of Clamping Antibodies by SPR Using an Amine Coupling Kit (GE Healthcare), SuRe Protein A (GE Healthcare) Prepared at 25 μg/mL in Acetate4.5 (GE Healthcare) was Immobilized onto Sensor Chip CM4 at Approximately 1200 RU Per Flow Cell.
HBS-EP+(GE Healthcare) was used for the running buffer, and the measurement was carried out at 37° C. Each antibody was reacted at a flow rate of 10 μL/min for 60 seconds to capture 1000 RU, and analyte CD3εδ prepared at 0 nM, 4.8 nM, 24 nM, 120 nM, 600 nM, 3000 nM, or 15000 nM was allowed to act at a flow rate of 30 μL/min for 60 seconds to monitor the binding phase, and HBS-EP+ was passed at a flow rate of 30 μL/min for 120 seconds to monitor the dissociation phase. The sensor chip was regenerated by passing Glycine1.5 and 25 mM NaOH, each at a flow rate of 30 μL/min for 30 seconds. The dissociation constant KD (M) was calculated based on the association rate constant ka (1/Ms) and the dissociation rate constant kd (1/s), which are kinetic parameters calculated from the sensorgram obtained by the measurement. Biacore T200 Evaluation Software (GE Healthcare) was used for the calculation of each parameter.

Binder	binding result [1]	Kd [2] [µM]
CE115HA000 one arm (CE115HA000-pE22Hh/GLS3000-k0//Kn010) (antibody, human IgG1, kappa, L234A L235A, N297A, also called one-arm antibody CE115HA000) heavy: QVQLVESGGGVVQPGRSLRLSCAASGFTFSNAWMHWVRQAPGKGLEWVAQIKAKSNNYATYYAESVKGRFTISRDDSKNSLYLQMNSLKTEDTAVYYCRYVHYGAYYGVDAWGQGTTVTVSSASTKGPSVFPLAPSSKSTSGGTAALGCLVKDYFPEPVTVSWNSGALTSGVHTFPAVLQSSGLYSLSSVVTVPSSSLGTQTYICNVNHKPSNTKVDKKVEPKSCDKTHTCPPCPAPEAAGGPSVFLFPPKPKDTLMISRTPEVTCVVVDVSHEDPEVKFNWYVDGVEVHNAKTKPREEQYASTYRVVSVLTVLHQDWLNGKEYKCKVSNKALPAPIEKTISKAKGQPREPQVYTLPPSRCELTKNQVSLSCAVKGFYPSDIAVEWESNGQPENNYKTTPPVLDSDGSFFLVSKLTVDKSRWQQGNVFSCSVMHEALHNHYTQKSLSLSPDYKDDDDK light: DIVMTQSPLSLPVTPGEPASISCRSSQSLVHSNRNTYLHWYQQKPGQAPRLLIYKVSNRFSGVPDRFSGSGSGTDFTLKISRVEAEDVGVYYCGQGTQVPYTFGQGTKLEIKRTVAAPSVFIFPPSDEQLKSGTASVVCLLNNFYPREAKVQWKVDNALQSGNSQESVTEQDSKDSTYSLSSTLTLSKADYEKHKVYACEVTHQGLSSPVTKSFNRGEC not shown	binds	–
CE115HA056 one arm (CE115HA056-pE22Hh/GLS3000-k0//Kn010) (antibody, human IgG1, kappa, L234A L235A, N297A, One-arm format; also called one-arm antibody CE115HA056) heavy: QVQLVESGGGVVQPGRSLRLSCAASGFTFSNAWMHWVRQAPGKGLEWVAQIKAKSNNYATYYAESVKGRFTISRDDSKNSLYLQMNSLKTEDTAVYYCRYAHYGAYYGVDAWGQGTTVTVSSASTKGPSVFPLAPSSKSTSGGTAALGCLVKDYFPEPVTVSWNSGALTSGVHTFPAVLQSSGLYSLSSVVTVPSSSLGTQTYICNVNHKPSNTKVDKKVEPKSCDKTHTCPPCPAPEAAGGPSVFLFPPKPKDTLMISRTPEVTCVVVDVSHEDPEVKFNWYVDGVEVHNAKTKPREEQYASTYRVVSVLTVLHQDWLNGKEYKCKVSNKALPAPIEKTISKAKGQPREPQVYTLPPSRCELTKNQVSLSCAVKGFYPSDIAVEWESNGQPENNYKTTPPVLDSDGSFFLVSKLTVDKSRWQQGNVFSCSVMHEALHNHYTQKSLSLSPDYKDDDDK light: DIVMTQSPLSLPVTPGEPASISCRSSQSLVHSNRNTYLHWYQQKPGQAPRLLIYKVSNRFSGVPDRFSGSGSGTDFTLKISRVEAEDVGVYYCGQGTQVPYTFGQGTKLEIKRTVAAPSVFIFPPSDEQLKSGTASVVCLLNNFYPREAKVQWKVDNALQSGNSQESVTEQDSKDSTYSLSSTLTLSKADYEKHKVYACEVTHQGLSSPVTKSFNRGEC not shown	binds	–
BiAb of CE115HA000-BS03a/GLS3000-k0 with the IC17 arm (bispecific antibody, human IgG1, kappa, N297A, how the CE115/IC17 BiAb was made is not described) heavy 1: QVQLVESGGGVVQPGRSLRLSCAASGFTFSNAWMHWVRQAPGKGLEWVAQIKAKSNNYATYYAESVKGRFTISRDDSKNSLYLQMNSLKTEDTAVYYCRYVHYGAYYGVDAWGQGTTVTVSSASTKGPSVFPLAPSSRSTSESTAALGCLVKDYFPEPVTVSWNSGALTSGVHTFPAVLQSSGLYSLSSVVTVPSSSLGTKTYTCNVDHKPSNTKVDKRVEPKSCDKTHTCPPCPAPELRRGPKVFLFPPKPKDTLMISRTPEVTCVVVDVSQEDPEVQFNWYVDGVEVHNAKTKPREEQFASTYRVVSVLTVLHQDWLNGKEYKCKVSNKGLPSSIEKTISKAKGQPREPQVYTLPPSREEMTKNQVSLTCLVKGFYPSDIAVEWESNGQPENNYKTTPPYLDSDGSFFLYSKLTVDKSRWQQGNVFSCSVMHEALHNHYTQESLSLSP light 1: DIVMTQSPLSLPVTPGEPASISCRSSQSLVHSNRNTYLHWYQQKPGQAPRLLIYKVSNRFSGVPDRFSGSGSGTDFTLKISRVEAEDVGVYYCGQGTQVPYTFGQGTKLEIKRTVAAPSVFIFPPSDEQLKSGTASVVCLLNNFYPREAKVQWKVDNALQSGNSQESVTEQDSKDSTYSLSSTLTLSKADYEKHKVYACEVTHQGLSSPVTKSFNRGEC heavy 2: QVQLQQSGPQLVRPGASVKISCKASGYSFTSYWMHWVNQRPGQGLEWIGMIDPSYSETRLNQKFKDKATLTVDKSSSTAYMQLSSPTSEDSAVYYCALYGNYFDYWGQGTTLTVSSASTKGPSVFPLAPSSRSTSESTAALGCLVKDYFPEPVTVSWNSGALTSGVHTFPAVLQSSGLYSLSSVVTVPSSSLGTKTYTCNVDHKPSNTKVDKRVEPKSCDKTHTCPPCPAPELRRGPKVFLFPPKPKDTLMISRTPEVTCVVVDVSQEDPEVQFNWYVDGVEVHNAKTKPREEQFASTYRVVSVLTVLHQDWLNGKEYKCKVSNKGLPSSIEKTISKAKGQPREPQVYTLPPSREEMTKNQVSLTCLVKGFYPSDIAVEWESNGQPENNYKTTPPYLDSDGSFFLYSKLTVDKSRWQQGNVFSCSVMHEALHNHYTQESLSLSP light 2: DIQMTQSSSSFSVSLGDRVTITCKASEDIYNRLAWYQQKPGNAPRLLISGATSLETGVPSRFSGSGSGKDYTLSITSLQTEDVATYYCQQYWSTPYTFGGGTKLEVKRTVAAPSVFIFPPSDEQLKSGTASVVCLLNNFYPREAKVQWKVDNALQSGNSQESVTEQDSKDSTYSLSSTLTLSKADYEKHKVYACEVTHQGLSSPVTKSFNRGEC	–	0.35
BiAb of CE115HA056-BS03a/GLS3000-k0 with the IC17 arm (bispecific antibody, human IgG1, kappa, N297A, See m38 on the IC17 arm) heavy 1: QVQLVESGGGVVQPGRSLRLSCAASGFTFSNAWMHWVRQAPGKGLEWVAQIKAKSNNYATYYAESVKGRFTISRDDSKNSLYLQMNSLKTEDTAVYYCRYAHYGAYYGVDAWGQGTTVTVSSASTKGPSVFPLAPSSRSTSESTAALGCLVKDYFPEPVTVSWNSGALTSGVHTFPAVLQSSGLYSLSSVVTVPSSSLGTKTYTCNVDHKPSNTKVDKRVEPKSCDKTHTCPPCPAPELRRGPKVFLFPPKPKDTLMISRTPEVTCVVVDVSQEDPEVQFNWYVDGVEVHNAKTKPREEQFASTYRVVSVLTVLHQDWLNGKEYKCKVSNKGLPSSIEKTISKAKGQPREPQVYTLPPSREEMTKNQVSLTCLVKGFYPSDIAVEWESNGQPENNYKTTPPYLDSDGSFFLYSKLTVDKSRWQQGNVFSCSVMHEALHNHYTQESLSLSP light 1: DIVMTQSPLSLPVTPGEPASISCRSSQSLVHSNRNTYLHWYQQKPGQAPRLLIYKVSNRFSGVPDRFSGSGSGTDFTLKISRVEAEDVGVYYCGQGTQVPYTFGQGTKLEIKRTVAAPSVFIFPPSDEQLKSGTASVVCLLNNFYPREAKVQWKVDNALQSGNSQESVTEQDSKDSTYSLSSTLTLSKADYEKHKVYACEVTHQGLSSPVTKSFNRGEC heavy 2: QVQLQQSGPQLVRPGASVKISCKASGYSFTSYWMHWVNQRPGQGLEWIGMIDPSYSETRLNQKFKDKATLTVDKSSSTAYMQLSSPTSEDSAVYYCALYGNYFDYWGQGTTLTVSSASTKGPSVFPLAPSSRSTSESTAALGCLVKDYFPEPVTVSWNSGALTSGVHTFPAVLQSSGLYSLSSVVTVPSSSLGTKTYTCNVDHKPSNTKVDKRVEPKSCDKTHTCPPCPAPELRRGPKVFLFPPKPKDTLMISRTPEVTCVVVDVSQEDPEVQFNWYVDGVEVHNAKTKPREEQFASTYRVVSVLTVLHQDWLNGKEYKCKVSNKGLPSSIEKTISKAKGQPREPQVYTLPPSREEMTKNQVSLTCLVKGFYPSDIAVEWESNGQPENNYKTTPPYLDSDGSFFLYSKLTVDKSRWQQGNVFSCSVMHEALHNHYTQESLSLSP light 2: DIQMTQSSSSFSVSLGDRVTITCKASEDIYNRLAWYQQKPGNAPRLLISGATSLETGVPSRFSGSGSGKDYTLSITSLQTEDVATYYCQQYWSTPYTFGGGTKLEVKRTVAAPSVFIFPPSDEQLKSGTASVVCLLNNFYPREAKVQWKVDNALQSGNSQESVTEQDSKDSTYSLSSTLTLSKADYEKHKVYACEVTHQGLSSPVTKSFNRGEC	–	7.4
